Measured values taken from the supplement of paper PMC9170038.

Test system: MS2 coat protein
Assay: apparent KD of MS2 coat protein; higher = weaker reporter binding
Settings: Eterna round: R107
Procedure, shortened: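 Designed RNA switches were transcribed on-chip from Illumina sequencing clusters and titrated with SNAP-549-labelled MS2 coat protein in twofold steps from 0.7 or 1.5 nM up to 3 µM. Each step lasted 0.8–1.5 h at first and 10–20 min by the end, in 100 mM Tris-HCl pH 7.5, 80 mM KCl and 4 mM MgCl2, without or with constant ligand. Apparent KD is the median, for each design, of fits to normalised cluster binding curves.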

[1] = input ligand: theophylline 20 uM
[2] = input ligand: tryptophan 2.4 mM
[3] = input ligand: theophylline 2 mM

Sequence | apparent KD of MS2 coat protein (input ligand: arginine 13.2 mM) [nM] | apparent KD of MS2 coat protein [1] [nM] | apparent KD of MS2 coat protein [2] [nM] | apparent KD of MS2 coat protein [3] [nM] | apparent KD of MS2 coat protein (input ligand: none) [nM]
UGCGGACAUGAGGAUCACCCAUGUGCGGAUACCAGCAGCCGGCUCUGCCCUUGGCAGCCGCUACCCUUGCACGUUUAACGAUCCA [theeternabot_sameState_MS2_Theo_A_27] | 31.9 | 60.2 | 50.1 |  | 
GGAAACCCGACGGCCGCCACUAACGGUCUCAAAAGAGGUUGAACACAUGAGGAUCACCCAUGUAAUAGGACCGGGUCGUGUGAAA [Design 1] | 17.9 | 24.9 |  | 19.4 | 
GGAUAGGACACGGCCGCCACUUGCUAGGAUACUAGCAACAUUUCCUCUCAUGAGGAUCACCCAUGAAGGACCGGGUGUCCUAUCG | 21.3 | 30.6 | 27.3 | 23.3 | 
GUUAGAUCAAAAGAUUUAACAGUGGGUGAACGAGGACCGGUACGGCCGCCACUCGGACAUGAGGAUCACCCAUGUCCAUGUGAAA [AstrosExyTryA#16] | 19.4 | 15.2 | 43.5 | 15.9 | 17.2
AGCAUGUUCAGAAGGAGCGUGCAAGGGUACAUUCGUAGGACAUGAGGAUCACCCAUGUAAGCACAGGUAGGUCGCUGGACAUGCU [Arg B SS t5] | 71.1 | 82.4 | 107 | 129 | 98.7
GGGUACAUCGCGGCCGCCACUCAUGUAAAUGCGUGAGGAUCACCCAUGCCGAUGGAGACAUCGGAGAGGACCGGGUGAUGUACCG | 27.9 | 40 | 46.7 | 52.7 | 38.5
UCUAGGCUCGGAAACGAGCCUAGUACAGAAGGAGCGUGGAUUAACACAGGUAGGUCGCUGACAUGAGGAUCACCCAUGUAUUAUU [SSAA #3] | 32.5 | 38 | 27.7 | 31 | 24.3
ACCGCAGGUCCUGAUACCAGAGACAUGAGGAUCACCCAUGUCCGAUCGUCCUGCCUCAGGCUCCCUUGGCAGCAGGGCUUGUCCU [Exclusion Theophylline B GF8] | 14.1 | 20.6 | 14.8 |  | 
UCGCUCUGGGUGAGAUCCGGAGAUGUGGAAGGAGCGCUGGUUCCAGCAGGUAGGUCGCCAACGGACAUGAGGAUCACCCAUGUAC [Same State - Arginine A (Freestyle 13)] | 39.2 | 63.1 | 45.9 | 70.4 | 51.7
AAUUCCUCACAUGAGGAUCACCCAUGUGAAGGAGCGCCGAAUAAGGCAGGUAGGUCGCACAUGGAAACCGCUACGAAAGUAGUAA [XArg-A 2 NuV2] | 18.7 | 25.3 | 19.2 | 22.1 | 19.9
AACCGAGGCUAUCCUCUCCGACUAUGUGAUACCAGAAUAAUUUUAUUCCCUUGGCAGCAUGACAUGAGGAUCACCCAUGUCUCUU [SSTheo A #10] | 16 | 18 | 15.9 |  | 
UGGUACAUGGCGGCCGCCACUUCACGUAAAAUAAAAACGUGAGGAUCACCCACGUAAUAAGUUGGGAGGACCGGGUCAUGUACCU | 122 | 344 | 123 | 491 | 321
UCAAAUGCGGCGGCCGCCACUCGCGGAUAACGAUAGCUUAACAUGAGGAUCACCCAUGUGUCAUGGAGGACCGGGCCCAUAACAU [ttmullin] | 23.4 | 35.1 | 23.9 | 37.1 | 27.2
AGCCAUGGAAACAUGGCGGCGGCAUGAGCGCGAGGACCGGUACGGCCGCCACUCGGGCAACAUGAGGAUCACCCAUGUUCCUCAU [ETA NP+V+V2 #20 +-Same Structure] | 62.5 | 140 | 363 | 158 | 101
GAUAUUUGAAAACAAAUAUCAGUGGGUGAACGAGGACCGGUACGGCCGCCACUCGGACAUGAGGAUCACCCAUGUCCAUGUGAAA [AstrosExyTryA#7] | 13.9 | 18.2 |  | 17.6 | 
AUUCAUGGAAACAUGACAUACAUAACCGGUCGAGGACCGGUACGGCCGCCACUCGUUUGGAGGCACAUGAGGAUCACCCAUGUUA [SS Tryp A #9] | 21.7 | 35.9 |  | 28.2 | 
GGUUGGUGUAGAGAUAUAUUGAUUACUGAAGGAGCGGGAAAUAACCCAGGUAGGUCGCAGAGAUCCACAUGAGGAUCACCCAUGU [!0.K] | 30.6 | 53 | 29.8 | 36.9 | 39.7
UAACAUGAGGAUCACCCAUGUUUGAAGGAACGAGGACCGGUACGGCCGCCACUCGACGAGUGGAUGAGAAGUGGGCUUGUGUGCU [Same State Trp A GF9] | 13.7 | 16.3 | 16.5 | 13 | 15.5
AAAACAAUCUGAAGGAGCGUCACAUGAGGAUCACCCAUGUACAUGAGGAUCACCCAUGUGUGACAGGUAGGUCGCAGAAAAUACC [Exclusion Arginine B GF 3] | 111 | 183 | 200 | 219 | 216
GAAACGUAGGUGGAGCGGUGAAAUGGCGAUACCAGCGUGGAAACAUGCCCUUGGCAGCGUUAGAACAUGAGGAUCACCCAUGUUU [#22 Exclusion-TheophyllineA] | 12.9 | 15.4 | 14.9 |  | 

Sequence | apparent KD of MS2 coat protein (input ligand: arginine 13.2 mM) [nM] | apparent KD of MS2 coat protein [1] [nM] | apparent KD of MS2 coat protein [2] [nM] | apparent KD of MS2 coat protein [3] [nM] | apparent KD of MS2 coat protein (input ligand: none) [nM]
ACAUGACAACAUGAGGAUCACCCAUGUCAUCGAGGACCGGUACGGCCGCCACUCGGUCAAUAUGAUACUUGUCAUGAACAUGAGG [Exclusion Tryptophan A 2] | 19 | 25.7 |  | 21.3 | 
AGAUUCGACACGGCCGCCACUUGUGGUGGAUUAUCCUAUGUAAGACAUGAGGAUCACCCAUGUACAAGGACCGGGUGUUGAGUCU [XTryp B #22] | 108 | 336 |  | 385 | 
ACAUGAGGAUCACCCAUGUACAUGAGGGAAGGAGCGGUACAUGUGCCAGGUAGGUCGCCCAACAGCAUCAGCCAUGUACAACGGA [xxbmullin] | 29 | 87.4 | 52.3 | 69.5 | 56.8
UAUGCACAUGAGGAUCACCCAUGUAUGGAAGGAGCGGUGAAUAAACCAGGUAGGUCGCCAUGGUGAGGGUCAUCUAUGUAAUCGU [Exclusion - Arginine A (Freestyle 5)] | 51 | 78.4 | 59.3 | 80.3 | 47.3
UUACAUGAGGAUCACCCAUGUCAUACAGAAGGAGCGUCACAUAAGACAGGUAGGUCGCUGUUAUUUCAUACUGUUAUAUCCUCUA [JR_Nu_ExcArginiA_Sub029] | 30.1 | 56.2 | 40 | 47.1 | 40.3
UAUUCUGACACAGAUACCAGUCAAUUCCGUGGCAAGUGCUACAUGAGGAUCACCCAUGUCGACCCUUGGCAGCUGAAGAGAUACA [theeternabot_exclusion_MS2_Theo_B_50] | 10.9 | 14.7 | 11.2 |  | 
GCCAUCGGCGGAAGCCGAUGGGAUACAGAAGGAGCGUGGAUUAACACAGGUAGGUCGCUGGACAUGAGGAUCACCCAUGUAAUAG [SSAA #8] | 17.4 | 27.2 | 21.7 | 32.4 | 26.2
AAUUUUAACGGAAGGAGCGUCAAUUAAUACAAACAUGAGGAUCACCCAUGUCAAUACAUGAGACAGGUAGGUCGCCGUUAUUUGA [JR_AAArginiB_Sub024] | 23.9 | 28 | 23.3 | 21.7 | 22.1
UUGUACGAAACUGAUACCAGCCAGCAAUGCCACCAAGAGCACAUGAGGAUCACCCAUGUUGGCCCUUGGCAGCAGGACAAUAAGC [theeternabot_exclusion_MS2_Theo_B_3] | 7.44 | 10.6 | 8.91 |  | 
CGUUAAGAAUCGGCCGCCACUCCAUACGUGUGAAUCGCGGAUCGACAUGAGGAUCACCCAUGUCGGAGGACCGGGAUCCUCUUUC [theeternabot_sameState_MS2_Trp_B_12] | 28.2 | 49.2 |  | 48 | 
UGGCAAGAGGGAAGGAGCGUCAGCAGAGUCACAUGAGGAUCACCCAUGUAGCACGUGGUGUGACAGGUAGGUCGCCCUCUGCCGU [SS-ArgB12] | 24.3 | 30.7 | 22.1 | 21.8 | 15.1
AUACAUGAGGAUCACCCAUGUAUAGUUGAAGGAGCGACCGGUGGGUCAGGUAGGUCGCAGCGCAUGGCGUCCACGCGUGUAUGCC [#1 Exclusion - Arginine A Attempt #30 (Inspired by Pi)] | 10.7 | 16.4 | 11.1 | 11.3 | 10.7
GGGCCCGGGCGCGAGCCCGGGCCCAUUGAUACCAGUGAUAUAUAACGCCCUUGGCAGCGAAUCCUAACAUGAGGAUCACCCAUGU [5.G] | 35.2 | 61.5 | 37 | 71.8 | 46.3
GGACUAACCAGAAGGAGCGACACGCAGAAACUGCAAUUUCCUCCGCACGAGGAUCACCCGUGUCAGGUAGGUCGCUGGUUAGUCG | 20.6 | 35.1 | 21.1 | 25.8 | 22.1
UGUCCUCAUGCGGCCGCCACUGUCGGCCGCCACUAAACAUGAGGAUCACCCAUGUAGGACCGGGACAGGACCGGGCAUGGGUGCU [TryBS - #DoubleAptamer] | 132 | 232 | 319 | 244 | 102
AGCGAUAUGCAUGAUACCAGCUACAUGAGGAUCACCCAUGUGCGUCAGAAAUGACUGUGUAGCCCUUGGCAGCAUAGAGCAUGUA [Exclusion - Theophylline B (Freestyle 11)] | 35.2 | 46.2 | 38.4 |  | 
GGUUGGUAUAUAUAUAUAUUGAUUACUGAAGGAGCGGGAAAUAACCCAGGUAGGUCGCAGAGAUCCACAUGAGGAUCACCCAUGU [!0.G] | 24.3 | 60.3 | 39.1 | 56.8 | 45.1
CAUAUAUAUGGAAGGAGCGCGAUUACAUAACAUGAGGAUCACCCAUGUAAGAAAUUAUUCAUGCAGGUAGGUCGCCAUAUAUAUG [Same State Arginine B GF6] | 29.3 | 35.3 | 26.6 | 27 | 24
UGUAUGGACUGAAGGAGCGGUAGAUAGCUUGAGGAUCACCCAAGUAAUAAGGCGAAAGCCUACCAGGUAGGUCGCAGUCCAUACU | 28 | 30.8 | 27.9 | 26.9 | 25.4
GGGCGUGUGGUGCGGCGUGCUCCGCUCCGUCGAGGACCGGUACGGCCGCCACUCGACAUGAGGAUCACCCAUGUGCGAGCGCGCG [#1 Exclusion - Tryptophan A Attempt #9 (HarryS)] | 16.3 | 10.5 | 24.4 | 14.4 | 9.81
